We go through four molecules from patent publication US9605038B2, “Fusion peptide comprising dhFas-1 domain and MMP substrate and use thereof for preventing and treating rheumatoid arthritis” (Kyungpook National University Industry-Academic Cooperation …, priority 2010, dated 2017).

“Also recorded” adds a separate entry of the source.

In data set [1] the test system is mouse fibroblast (NIH3T3). As to the kind of experiment: βig-h3-mediated cell adhesion test, NIH3T3. The class given is cell-based. Particulars: for adhesion inhibiting effect: NIH3T3, concentration of 0.5uM, FIG. 15C; for βig-h3-mediated cell adhesion: NIH3T3, βig-h3 5 ug/ml coat. Here is the method:
(§1) Human βig-h3 was introduced into a 96-well plate at a concentration of 5 ug/ml, and coated for 14 hours at 4° C. In DMEM+0.5% BSA (Bovine Serum Albumin) culture medium, human fibroblast (NIH3T3) was introduced, and hsdhFas-1 peptide at concentrations was injected thereto, followed by mixing. The resultant mixture was cultured at 37° C. for 30 minutes, and plated on a coated well. It was cultured for 2 hours, and washed with PBS (phosphate buffered saline) so as to remove unattached cells, and then added with a substrate (4-Nitrophenyl N-acetyl-β-D-glucosaminide, Sigma, U.S.) to be activated by β-N-acetylglucosaminidase within the cell, followed by culturing at 37° C. for 1 hour. Then, a glycine EDTA solution (0.5M EDTA, 50 mM glycine, pH 10.4) was added thereto, and the coloring extent according to the number of attached cells was measured by absorbance.
Also, a structurally modified peptide of a fas-1 domain of mouse βig-h3 was synthesized as a recombinant peptide (hereinafter, referred to as ‘mdhFas-1peptide’, see FIG. 2), and a mouse cell line, that is, NIH3T3 cell line, was used to test the inhibiting effect by mdhFas-1 peptide on adhesion and migration of a Synovial membrane cell in the same manner as that in the test using human βig-h3.
as §1, with “βig-h3” for “Human βig-h3”, “mouse” for “human”, “MFK23, MFK24, MFK25 or MFK27” for “hsdhFas-1 peptide”

For a further data set, the system named is NIH3T3. As to the kind of experiment: βig-h3-mediated cell migration test (transwell), NIH3T3. Particulars: 7 hours. Format: cell-based, mouse. Here is the method:
In the lower compartment of a transwell filter having an 8 um hole size allowing cells to be migrated, βig-h3 was cultured at 4° C. for 12 to 14 hours and coated. In DMEM+0.5% BSA culture medium, NIH3T3 was introduced, and administered with MFK23, MFK24 or MFK25 at concentrations, followed by mixing. The resultant mixture was cultured at 37° C. for 30 minutes, inoculated into the upper chamber of the coated well, and cultured for 7 hours at 37° C. Then, the cells migrated to the lower compartment of the filter were fixed by paraformaldehyde, and strained by a crystal violet. The cells […] remaining in the upper chamber were wiped out and the number of cells migrated to the lower compartment was microscopically counted.

The next data set addresses T1, MMP1 (Homo sapiens, UniProt P03956).
T1 sequence (P03956 100-469): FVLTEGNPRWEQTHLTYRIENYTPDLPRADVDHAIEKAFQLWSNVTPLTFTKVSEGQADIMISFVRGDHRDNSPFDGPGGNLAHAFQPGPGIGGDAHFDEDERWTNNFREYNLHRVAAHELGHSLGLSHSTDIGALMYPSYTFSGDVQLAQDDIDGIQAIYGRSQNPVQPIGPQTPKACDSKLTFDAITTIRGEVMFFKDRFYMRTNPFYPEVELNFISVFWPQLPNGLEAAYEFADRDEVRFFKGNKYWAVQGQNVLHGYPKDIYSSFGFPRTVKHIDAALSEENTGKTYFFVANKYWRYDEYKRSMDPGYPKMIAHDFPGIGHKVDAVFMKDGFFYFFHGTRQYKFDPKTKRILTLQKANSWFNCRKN
As to the kind of experiment: Enzymatic digestion test, MMP1. The class given is biochemical. Particulars: 3 ug peptide, MMP1 5, 10, 50 ng, 37° C. 4 hours. Here is the method: (§2) 3 ug of synthesized mdhFas-1-MMPsubstrate structure modified protein, together with MMP1 (5 ng, 10 ng and 50 ng), MMP2 (100 ng, 200 ng and 800 ng), MMP3 (10 ng, 50 ng and 100 ng), cathepsin D (5 ng, 10 ng and 50 ng), cathepsin L (100 ng, 200 ng and 800 ng), and cathepsin K (10 ng, 50 ng and 100 ng), was mixed with enzyme buffer (150 mM NaCl, 5 mM. CaCl2, 20 mM Tris-HCl pH7.5), and reacted at 37° C. for 4 hours. The resultant product was subjected to electrophoresis through 15% polyacrylamide gel, transferred to a Nitrocellulose Membrane (Schleicher & Schuell), blocked at room temperature for 1 hour with TBST solution containing 3% BSA (20 mmole/L Tris-HCl, 137 mmole//l NaCl, 0.1% Tween-20), washed TBST solution three times (each for 10 minutes), and reacted with primary antibody (anti-Histidine or anti-Bigh3) for 1 hour. The resultant product was washed with TBST solution three times (each for 10 minutes), reacted with a secondary antibody conjugated to horseradish peroxidase (HRP) for 1 hour, washed TBST solution three times (each for 10 minutes), and visualized by ECL (Amersham Biosciences, UK) so as to detect the change in the amount of mdhFas-1-MMPsubstrate-RGD structural peptide.

For a further data set, the target named is T2, MMP2 (Homo sapiens, UniProt P08253).
T2 sequence (P08253 110-660): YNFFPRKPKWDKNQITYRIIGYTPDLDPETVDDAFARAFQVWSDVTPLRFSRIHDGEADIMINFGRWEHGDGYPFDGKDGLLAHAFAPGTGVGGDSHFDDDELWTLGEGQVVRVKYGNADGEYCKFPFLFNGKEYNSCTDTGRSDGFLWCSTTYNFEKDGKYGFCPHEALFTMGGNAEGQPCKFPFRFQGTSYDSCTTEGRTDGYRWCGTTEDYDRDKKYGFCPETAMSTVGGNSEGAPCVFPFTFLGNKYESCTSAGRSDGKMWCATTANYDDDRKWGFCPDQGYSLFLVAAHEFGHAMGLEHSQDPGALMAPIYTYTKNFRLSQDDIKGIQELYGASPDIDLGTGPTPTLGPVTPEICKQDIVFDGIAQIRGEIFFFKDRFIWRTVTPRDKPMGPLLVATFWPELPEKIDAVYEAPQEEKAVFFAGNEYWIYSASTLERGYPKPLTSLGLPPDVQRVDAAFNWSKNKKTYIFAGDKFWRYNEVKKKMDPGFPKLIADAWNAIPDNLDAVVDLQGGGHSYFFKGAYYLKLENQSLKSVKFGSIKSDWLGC
As to the kind of experiment: Enzymatic digestion test, MMP2. Format: biochemical. Particulars: 3 ug peptide, MMP2 100, 200, 800 ng, 37° C. 4 hours. The protocol: as §2

In the next data set the target is MMP3 (Homo sapiens, UniProt P08254). As to the kind of experiment: Enzymatic digestion test, MMP3. Format: biochemical. Particulars: 3 ug peptide, MMP3 10, 50, 100 ng, 37° C. 4 hours. The protocol: as §2
A further data set deals with T3, cathepsin K (Homo sapiens, UniProt P43235).
T3 sequence (P43235 115-329): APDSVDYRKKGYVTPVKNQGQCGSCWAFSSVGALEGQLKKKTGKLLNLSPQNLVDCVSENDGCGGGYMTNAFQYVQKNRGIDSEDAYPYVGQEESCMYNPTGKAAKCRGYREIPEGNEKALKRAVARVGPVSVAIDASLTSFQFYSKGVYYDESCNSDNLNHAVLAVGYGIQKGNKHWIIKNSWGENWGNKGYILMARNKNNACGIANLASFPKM
As to the kind of experiment: Enzymatic digestion test, cathepsin K. Format: biochemical. Particulars: 3 ug peptide, cathepsin K 10, 50, 100 ng, 37° C. 4 hours. Here is the method:
as §2

Another data set has as its target cathepsin L (Homo sapiens, UniProt P07711). As to the kind of experiment: Enzymatic digestion test, cathepsin L. The class given is biochemical. Particulars: 3 ug peptide, cathepsin L 100, 200, 800 ng, 37° C. 4 hours. Here is the method:
as §2

A further data set concerns the target cathepsin D (Homo sapiens, UniProt P07339). As to the kind of experiment: Enzymatic digestion test, cathepsin D. The class given is biochemical. Particulars: 3 ug peptide, cathepsin D 5, 10, 50 ng, 37° C. 4 hours. Here is the method: as §2
The test system of data set [2] is collagen-induced arthritis (CIA) mouse model. Nature of the data set: Arthritis therapeutic effect in CIA mouse (clinical arthritis index). The class given is in vivo. Here is the method:
A CIA mouse model having the similar characteristic to that of human rheumatoid arthritis was prepared according to the description in a known literature (Protocol for the successful induction of collagen-induced arthritis (CIA) and collagen antibody-induced arthritis (CAIA) in mice. Chondrex, Redmond, Wash.): Bovine type 2 collagen 100 ug was mixed with Freund's complete adjuvant, and hypodermically inoculated into the tail of the mouse. After 3 weeks, bovine type 2 collagen 100 ug was mixed with Freund's incomplete adjuvant, and inoculated again into the tail of the mouse. Then, the mouse was used in the experiment.
In order to find out the therapeutic effect of arthritis in a CIA model, for four weeks from the onset (the 23rd day) of arthritis following the second injection of the bovine type 2 collagen, MFK23 or MFK24 was daily injected into the abdominal cavity in doses of 0.1 mg/kg, 1 mg/kg, 10 mg/kg and 30 mg/kg. As a control group, the same amount of PBS was injected into the abdominal cavity. From the 23rd day to the 50th day, by using a Clinical arthritis index, the severity of arthritis was daily determined. The determination was based on the following data.
0; no symptom, 1; edema in one articulation or light edema, 2; severe edema in 2 or more articulations, 3; severe edema in most articulations, 4; severe edema in the whole of legs.

The nature of data set [3]: Toxicity test in CIA mouse (weight, serologic test, blood test). Particulars: CIA mouse, 22nd day vs 48th day.
Description: On the 48th day, a serologic test and a blood test were carried out.

MMP3, sequence (P08254 100-477, species assumed): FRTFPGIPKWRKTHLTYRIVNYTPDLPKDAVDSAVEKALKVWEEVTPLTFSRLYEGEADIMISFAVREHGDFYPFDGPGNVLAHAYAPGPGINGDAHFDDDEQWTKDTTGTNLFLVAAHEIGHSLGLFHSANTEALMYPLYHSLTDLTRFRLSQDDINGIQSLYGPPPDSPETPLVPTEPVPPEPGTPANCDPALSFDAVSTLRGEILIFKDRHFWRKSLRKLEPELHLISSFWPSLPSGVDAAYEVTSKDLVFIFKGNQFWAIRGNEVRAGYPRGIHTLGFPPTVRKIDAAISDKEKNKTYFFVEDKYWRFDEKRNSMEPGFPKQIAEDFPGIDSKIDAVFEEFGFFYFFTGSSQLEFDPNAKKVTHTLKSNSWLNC
cathepsin L, sequence (P07711 114-333, species assumed): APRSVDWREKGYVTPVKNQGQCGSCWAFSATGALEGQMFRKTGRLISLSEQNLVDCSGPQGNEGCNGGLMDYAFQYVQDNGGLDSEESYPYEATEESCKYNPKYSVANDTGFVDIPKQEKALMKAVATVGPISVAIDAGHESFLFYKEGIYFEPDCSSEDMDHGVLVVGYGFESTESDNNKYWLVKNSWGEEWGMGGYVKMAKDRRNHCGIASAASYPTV
cathepsin D, sequence (P07339 65-412, species assumed): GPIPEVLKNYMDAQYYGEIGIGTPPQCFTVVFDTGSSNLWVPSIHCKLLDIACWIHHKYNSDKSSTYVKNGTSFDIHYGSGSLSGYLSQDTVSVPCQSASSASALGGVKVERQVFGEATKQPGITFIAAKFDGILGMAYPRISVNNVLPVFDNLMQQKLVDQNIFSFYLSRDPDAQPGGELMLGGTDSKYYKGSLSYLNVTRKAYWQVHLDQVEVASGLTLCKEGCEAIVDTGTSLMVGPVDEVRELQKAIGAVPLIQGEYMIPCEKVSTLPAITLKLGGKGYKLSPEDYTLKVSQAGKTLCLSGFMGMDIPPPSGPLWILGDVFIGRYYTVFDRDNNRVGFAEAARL

In data set [1], “RGDSP (amino acid chain comprising ′RGD′) [reference compound]” showed an adhesion inhibiting effect of 0%.

B1: MFK25: fusion peptide having sequential links of mdhFas-1, MMP consensus substrate GPLGIAG (SEQ ID NO: 7), and QERGDSLA (SEQ ID NO: 10) (protein)
chain: QAMPPEELNKLLANAKELTNILKYHIGDEILVSGGIGALVRLKSLQGDKLEVSSKNNVVSVNKEPVAETDIMEFGPLGIAGVDGQERGDSLAGLE
modifications: MFK25
Take B1: the βig-h3-mediated cell adhesion entry in [1] is given as “even at a very low concentration can inhibit the cell adhesion; also recorded: concentration-dependently inhibited”. In addition, in the data set with NIH3T3, the βig-h3-mediated cell migration entry is on record as “inhibited the cell migration; also recorded: concentration-dependently inhibited”. The “cleavage through treatment with MMP-1” value with MMP1 is listed as “concentration-dependently cleaved; also recorded: well cleaved”. Further, the “cleavage through treatment with MMP-2” value with MMP2 is listed as “concentration-dependently cleaved”. In addition, the “cleavage through treatment with MMP-3” value with MMP3 is “concentration-dependently cleaved; also recorded: well cleaved”. In addition, the “cleavage through treatment with cathepsin K” value with cathepsin K was “not cleaved”. In addition, in the data set with cathepsin L, the “cleavage through treatment with cathepsin L” value is recorded as “not cleaved”. Also, the “cleavage through treatment with cathepsin D” value with cathepsin D is reported as “not cleaved”.

B2: mdhFas-1: peptide prepared by removing H1 and H2 regions from the fourth fas-1 domain of mouse βig-h3 (protein)
chain: QAMPPEELNKLLANAKELTNILKYHIGDEILVSGGIGALVRLKSLQGDKLEVSSKNNVVSVNKEPVAETDIM
modifications: mdhFas-1
notes: peptide prepared by removing H1 and H2 regions from the fourth fas-1 domain of mouse βig-h3
Take B2: the adhesion inhibiting effect in [1] came to 50%. Moreover, in [1], the βig-h3-mediated cell adhesion result was “concentration-dependently inhibited”. The βig-h3-mediated cell migration result in the data set on NIH3T3 is listed as “concentration-dependently inhibited”. Further, the results for the “arthritis inhibition (clinical arthritis index)” value in data set [2] (10 mg/kg daily) and in data set [2] (30 mg/kg daily) were “about 32%” and “about 69%”, respectively. Moreover, the “arthritis inhibiting effect (clinical arthritis index), in words” value in [2] (daily into the abdominal cavity) is on record as “concentration-dependently inhibited”. For the same molecule, the “body weight change compared to control group” value in [3] is “abnormal findings in the weight change were not observed”.

B3: MFK27: fusion peptide having sequential links of mdhFas-1, MMP3 substrate GPLGLWARG (SEQ ID NO: 8), and QERGDSLA (SEQ ID NO: 10) (protein)
chain: MALLMRLLTLALALSVGPAGTLARSQAMPPEELNKLLANAKELTNILKYHIGDEILVSGGIGALVRLKSLQGDKLEVSSKNNVVSVNKEPVAETDIMEFGPLGLWARGVDQERGDSLAGLE
modifications: MFK27
As for B3, the βig-h3-mediated cell adhesion result in [1] is on record as “even at a very low concentration can inhibit the cell adhesion; also recorded: concentration-dependently inhibited”.
